Experimental data: the supplement of paper PMC9170038

Tested on: MS2 coat protein
Experiment: apparent KD of MS2 coat protein; higher = weaker reporter binding
Conditions: Eterna round: R107
Method in brief: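 Apparent KD per design is the median of normalised cluster binding-curve fits. Designed RNA switches transcribed on-chip from Illumina sequencing clusters were titrated with SNAP-549-labelled MS2 coat protein in twofold steps from 0.7 or 1.5 nM to 3 µM, with 0.8–1.5 h down to 10–20 min per step. Buffer: 100 mM Tris-HCl pH 7.5, 80 mM KCl, 4 mM MgCl2, without or with constant ligand.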

[1] = input ligand: theophylline 20 uM
[2] = input ligand: tryptophan 2.4 mM
[3] = input ligand: theophylline 2 mM

Sequence	apparent KD of MS2 coat protein (input ligand: arginine 13.2 mM) [nM]	apparent KD of MS2 coat protein [1] [nM]	apparent KD of MS2 coat protein [2] [nM]	apparent KD of MS2 coat protein (input ligand: none) [nM]	apparent KD of MS2 coat protein [3] [nM]
CAUUAUGUAACUGAUACCAGUGUACUGACAUGAGGAUCACCCAUGUUGGGUUUUGUUGUACACCCUUGGCAGCAGAAUCAUAAUG [AstrosExyTheB#2]	43.3	70.3	57.8		
CAUUGAGCAGCUGAUACCAGUGCCUGAACUUACAUGAGGAUCACCCAUGUAUGCCCAAAACACCCUUGGCAGCAGAGGAAGAUCG [theeternabot_sameState_MS2_Theo_B_38]	15.2	18.9	14.5		
CCACACAUGAGGAUCACCCAUGUAAUUGAUACCAGAUUUAAAUGAGUCCCUUGGCAGCAGUGAGCUAGAGUUGUCGUAUAUAUGG [Theo A SS t2]	14.2	23.8	16.1		
CCAUAGGGUAAAUACGUAAUCAUAUCUGAAGGAGCGUGGAUAUACACAGGUAGGUCGCAGAAUCACAUGAGGAUCACCCAUGUCU [Same State Arginine A GF12]	28.8	39.8	42.7	41.2	47.5
CCAUUGAUGACGGCCGCCACUGUCUACAUGAGGAUCACCCAUGUAUAGCAGGGUGGACCUAUGGACAGGACCGGGUCACUUGUCC [Tryp B Ex t7]	10.4	13.7			12.4
CCCAAUUAGAUCUUUGGAAUUUUACUCGAAGGAGCGUCAUAGUAGGCAGGUAGGUCGCGAGACAUGAGGAUCACCCAUGUAGAGA [btbmullin]	33	50.8	33	40.9	38.5
CCCUGGGUGGGAAGGAGCGCAUAGUGAACAUGAGGAUCACCCAUGUGUAGACGUGAGUCACUGCAGGUAGGUCGCCCACCCAGGG [SS-ArgB23]	19.5	47.3	29.5	27.5	46.5
CCGGCGCGAUUAUGGGUUUGCUUUUACGAUACCAGCCGCGUUCCGGGCCCUUGGCAGCGUGUAACAUGAGGAUCACCCAUGUUCA [theeternabot_exclusion_MS2_Theo_A_37]	9.81	20.7	10.1		
CCUAUUCCUACGGAUACCAGACGAUCCGUGGCGUGUGUGAACAUGAGGAUCACCCAUGUAGUCCCUUGGCAGCCGAUGCGGGUAA [theeternabot_exclusion_MS2_Theo_B_10]	37.7	51.4	33.5		
CCUCAUGAACAUGAGGAUCACCCAUGUACACGAGGACCGGUACGGCCGCCACUCGAAUAAGCUAAAUAUAAAUAAUAAUAAUAGC [5' end split MS2]	18.4	18.3			16.8
CGAUCUUUCGAAAGAAGGAUCGAGUCUGAUACCAGAGACGAAAGUCUCCCUUGGCAGCAGUGCCAACAUGAGGAUCACCCAUGUU [Theophylline A 10]	16.2	19.1	15.8		
CGAUGCGCAUUAUCCCACUGGUAUGAGUCUCGAGGACCGGUACGGCCGCCACUCGCUACCGUACAUGAGGAUCACCCAUGUAUUA [theeternabot_exclusion_MS2_Trp_A_13]	23.7	38.8			35.9
CGCACAGAGAAUGAUACCAGCGAGGAAGCGACAUGAGGAUCACCCAUGUGCGAAUGAUCCCGCCCUUGGCAGCGUAAGUGAUCCC [ss-theoB-?]	59.3	154	62.6		
CGCGGUUGAGAUGGGCCUUUGAUAAGUCUGCGAGGACCGGUACGGCCGCCACUCGAGGACAUGAGGAUCACCCAUGUACUUCGCG [Atriera]	51.1	81			57.7
CGCUACAUAGCGGCCGCCACUGUCAUGGCUACGAUAGGUCACUCGUACAUGAGGAUCACCCAUGUCAGGACCGGGCUAUCCUCGC [theeternabot_exclusion_MS2_Trp_B_20]	64.9	112			112
CGGUUGCCACAUGAGGAUCACCCAUGUGAAGGAGCGGCGAAUAAGCCAGGUAGGUCGCGCAUGAAUAAAUCAUGUUGGUGCCGAA [XArg-A 17 V2]	25.6	65.1	33.4	39.7	68.5
CGUCGAAACUGAAGGAGCGAGAUGACAACAUUGGGUCUAACAUGAGGAUCACCCAUGUAAUCUCAGGUAGGUCGCGGUGUCAACA [Exclusion Arginine B GF18]	53.7	86.3	63.9	64.6	120

Sequence	apparent KD of MS2 coat protein (input ligand: arginine 13.2 mM) [nM]	apparent KD of MS2 coat protein [1] [nM]	apparent KD of MS2 coat protein [2] [nM]	apparent KD of MS2 coat protein (input ligand: none) [nM]	apparent KD of MS2 coat protein [3] [nM]
CUAAGAGCGGCGGCCGCCACUGGUAACCGAGAGGAGGAGCCUCUGACAUGAGGAUCACCCAUGUUCAGGACCGGGUCGUCUUAGA [#06 Same State - Tryptophan B]	41.2	77.5	54.6	60.2	74.4
CUAUUUAUAGCGGCCGCCACUUACUCAUGAGGUAACAACAUGAGGAUCACCCAUGUUUGAGGAUCAAGGACCGGGCUAUAGAUAG [AstrosSSTryB#11]	36.7	20.3	15	27.5	24.3
CUGACAGACUCGGCCGCCACUGAUAGUAGGACAUGAGGAUCACCCAUGUAAACAAACCUCAUAGCCAGGACCGGGAGUCACGAAG [Same State Tryptophan B GF 21]	31	57.1	24.9	45.6	51.3
CUGCCACAGAUAGAUACCAGAGGCGUGCAAGCUACAGCUCACAUGAGGAUCACCCAUGUUCUCCCUUGGCAGCUACGGUGUAAGG [theeternabot_exclusion_MS2_Theo_B_26]	17.1	24	19.4		
CUGGACAUGAGGAUCACCCAUGUAAAUCCUCGAGGACCGGUACGGCCGCCACUCGAACGAGUGGCGCGCGCGCGCGCGCGCGCGC [aIa]	23.5	142	62.9	54.3	89.5
CUUAUAGUAACUGAUACCAGUGUACUGACAUGAGGAUCACCCAUGUUGGGUUUUGUUGUACACCCUUGGCAGCAGAAUCUAUAAG [AstrosExyTheB#10]	49.2	65.7	58.8		
GACAUGAGGAUCACCCAUGUAUUGGGUGAUACCAGCCUGAAUCAUGGCCCUUGGCAGCACCGCGCUAACUUUAUGUUUGCGAACC [Mavegeceri]	95	210	56.5		
GACAUGAGGAUCACCCAUGUUUUCUAUGAAGGAGCGUCGGAAAUGACAGGUAGGUCGCAUGGUAGGACUUGUAUCUUGUAUGUAG [EAA NP+V+V2 #10]	13.4	16.2	15.5		14.7
GACCGAUUAUAGUGCGAUUGUCUUGUGGAAGGAGCGCAGAGGACUGCAGGUAGGUCGCCACAUGAGGAUCACCCAUGUCAGGAUU [Reinorlaan]	39.8	45.1	40.5	46	64.8
GACGAUAUGAUACGUCAGCAAUCCUCGAAACGAGGACCGGUACGGCCGCCACUCGAGUGAUACACAUGAGGAUCACCCAUGUACC [Tryp A Ex t3]	30.9	49.6			49.4
GAGGAAACUCACAUGAGGAUCACCCAUGUACGAGGACCGGUACGGCCGCCACUCGAAACCAUGGGCGGUAGUACGUGGAAGCUUG [Design 2 MOD 2]	21.1	31.3			23.8
GAGGGUGAAUCUCUGGUCCGUUUGACGGAUACCAGCGAGAGGUAUCGCCCUUGGCAGCCGACGACAUGAGGAUCACCCAUGUUAA [#08 Exclusion-TheophyllineA]	18.9	30.4	18		
GAUGAACUAUUUGAUACCAGACCACAUGAGGAUCACCCAUGUGAGUUUCGUCCUUAGCCGGUCCCUUGGCAGCAAAUAGUUUAUC [#27 Exclusion-TheophyllineB]	19.3	24.1	16.7		
GAUGAAGUAACUGAUACCAGUGUACUGACAUGAGGAUCACCCAUGUUGGGUUUUGUUGUACACCCUUGGCAGCAGAAUCUUUAUC [AstrosExyTheB#5]	33.8	60.8	45.8		
GCACAUGAGGAUCACCCAUGUAUUACUGAAGGAGCGAGACAGAACUCAGGUAGGUCGCAGACUGCACAAUUGCGGACGACAUGGG [Exclusion Arginine A GF22]	14.6	41	34.3	31.5	31.2
GCACCAGGUACGGAUACCAGACGUUGCCAAUUGGGUGCACAUGAGGAUCACCCAUGUUCUGUCCCUUGGCAGCCGUACCUGGUGC [EThB NP+V+V2 #5]	10.2	13.5	9.12	10.1	73.2
GCACCAGGUACGGAUACCAGCUGCCCGAGAUACAUGAGGAUCACCCAUGUGACCUGAUUUAGCCCUUGGCAGCUGUACCUGGUGC [SSThB NP+V+V2 #1]	148	189	285	333	55.9
